Measurements: US20200188477A1, “A MEDICAMENT FOR THE TREATMENT OF DISEASES BY BIOFILM FORMING MICROORGANISMS” (priority 2017, published 2020)

Molecular target: M. tuberculosis PpiB overexpressed in M. smegmatis (Ms_PpiB Tet+) (Mycobacterium tuberculosis) (UniProt P9WHW1)
Experiment: cell-based or functional assay

Sequence of UniProt P9WHW1 (P9WHW1 whole entry): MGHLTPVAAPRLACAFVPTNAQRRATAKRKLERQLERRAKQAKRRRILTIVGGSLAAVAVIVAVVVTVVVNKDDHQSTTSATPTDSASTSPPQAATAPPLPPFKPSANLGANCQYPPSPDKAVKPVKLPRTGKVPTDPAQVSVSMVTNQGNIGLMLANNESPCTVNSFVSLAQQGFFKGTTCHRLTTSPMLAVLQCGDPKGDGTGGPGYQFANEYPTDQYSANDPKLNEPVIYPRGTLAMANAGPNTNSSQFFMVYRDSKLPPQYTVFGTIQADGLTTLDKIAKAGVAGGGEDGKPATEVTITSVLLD

Substance: cyclosporine A (peptide)
- biofilm formation (crystal violet assay, absorbance at 550 nm): > 100 µg/mL
